In patent US20160106861A1, “AXL ANTIBODY-DRUG CONJUGATE AND ITS USE FOR THE TREATMENT OF CANCER” (PIERRE FABRE MEDICAMENT, priority 2013, published 2016):

Target: T1, rhAxl-Fc protein (Homo sapiens, UniProt P30530)
T1 construct: purchased R and D Systems 154AL/CF
T1 sequence (P30530 26-451 limits assumed): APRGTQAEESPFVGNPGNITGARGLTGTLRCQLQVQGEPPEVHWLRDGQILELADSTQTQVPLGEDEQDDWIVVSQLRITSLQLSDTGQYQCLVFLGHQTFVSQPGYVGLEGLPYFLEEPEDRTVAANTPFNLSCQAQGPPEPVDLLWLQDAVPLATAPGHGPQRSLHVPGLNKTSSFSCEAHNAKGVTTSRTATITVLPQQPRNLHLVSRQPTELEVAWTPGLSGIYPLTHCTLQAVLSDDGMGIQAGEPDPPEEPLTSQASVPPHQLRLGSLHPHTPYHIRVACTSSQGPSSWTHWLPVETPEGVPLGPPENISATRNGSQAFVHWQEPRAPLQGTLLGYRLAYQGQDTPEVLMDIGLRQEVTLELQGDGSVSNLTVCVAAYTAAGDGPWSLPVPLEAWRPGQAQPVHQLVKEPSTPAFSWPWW
Assay: ELISA with coated 1613F12 and a range of rhAxl-Fc protein (hz vs. m)
Assay type: binding
Settings: FIG. 3
Experimental: In this assay, 96 well plates (Immulon II, Thermo Fisher) were coated with a 5 μg/ml of 1613F12 solution in 1×PBS, overnight at 4° C. After a saturation step, a range of rh Axl-Fc protein (R and D Systems, ref: 154-AL) is incubated for 1 hour at 37° C. on the coated plates. For the revelation step, a biotinylated-Axl antibody (in house product) was added at 0.85 μg/ml for 1 hour at 37° C. This Axl antibody belongs to a distinct epitopic group. Then an avidin-horseradish peroxidase solution at 1/2000° in diluent buffer is added to the wells. Then the TMB substrate solution is added for 5 min. After addition of the peroxydase stop solution, the absorbance at […] was measured with a microplate reader.

B1: hz1613F12: humanized Axl antibody 1613F12 (antibody, V domains shown)
VH: QVQLVQSGAEVKKPGASVKVSCKASGFNIRDTYMHWVRQAPGQGLEWMGRLDPANGHTKYAQKFQGRVTMTRDTSISTAYMELSRLRSDDTAVYYCARGAYYYGSSGLFYFDYWGQGTLVTVSS
VL: DVQMTQSPSSLSASVGDRVTITCRASKSISKYLAWYQQKPGKVPKLLIYSGSTLQSGVPSRFSGSGSGTDFTLTISSLQPEDVATYYCQQHHEYPLTFGGGTKVEIK
modifications: Hz1613F12 VH - Consensus 2; Hz1613F12 VL - Consensus 2
notes: humanized Axl antibody 1613F12
  binding of rhAxl-Fc protein, murine versus humanized version: bind similarly the rhAxl-Fc protein
